Results reported in paper PMC12290929, “Analytical and Structural Evaluation of Recombinant Human Serum Albumin and Fragment F8 for Aptamer-Based Urinary Biomarker Detection”.

How the values were obtained:
rHSA (E. coli) = rHSA (E. coli) (Homo sapiens, UniProt P02768 25-609); test: graphene oxide fluorescence recovery (Cy5 aptasensor); GO-quenched aptamer; protein 0.37-1500 ug/mL; sigmoidal, R2 > 0.99; PBS pH 7.4, graphene oxide (15 uL of 5 mg/mL) + Cy5-H8 (15 uL of 5 uM) preincubated 5 min at room temperature, 200 uL final volume, 30 min with protein in the dark, ex 630/em 670 nm; settings: protein: recombinant; tags: His-tag; label: 5'-Cy5
rF8 (HSA fragment F8) = rF8 (HSA fragment F8) (Homo sapiens, UniProt P02768); test: graphene oxide fluorescence recovery (Cy5 aptasensor); GO-quenched aptamer; protein 0.37-1500 ug/mL; sigmoidal, R2 > 0.99; response comparable to full-length rHSA; PBS pH 7.4, graphene oxide (15 uL of 5 mg/mL) + Cy5-H8 (15 uL of 5 uM) preincubated 5 min at room temperature, 200 uL final volume, 30 min with protein in the dark, ex 630/em 670 nm; settings: protein: recombinant; tags: His-tag; label: 5'-Cy5
rHSA (rice) = rHSA (rice) (Homo sapiens, UniProt P02768 25-609); test: graphene oxide fluorescence recovery (Cy5 aptasensor); GO-quenched aptamer; protein 0.37-1500 ug/mL; sigmoidal, R2 > 0.99; lower fluorescence than E. coli proteins; PBS pH 7.4, graphene oxide (15 uL of 5 mg/mL) + Cy5-H8 (15 uL of 5 uM) preincubated 5 min at room temperature, 200 uL final volume, 30 min with protein in the dark, ex 630/em 670 nm; settings: protein: commercial; label: 5'-Cy5

Measured: binding result

rHSA (E. coli), sequence (P02768 25-609): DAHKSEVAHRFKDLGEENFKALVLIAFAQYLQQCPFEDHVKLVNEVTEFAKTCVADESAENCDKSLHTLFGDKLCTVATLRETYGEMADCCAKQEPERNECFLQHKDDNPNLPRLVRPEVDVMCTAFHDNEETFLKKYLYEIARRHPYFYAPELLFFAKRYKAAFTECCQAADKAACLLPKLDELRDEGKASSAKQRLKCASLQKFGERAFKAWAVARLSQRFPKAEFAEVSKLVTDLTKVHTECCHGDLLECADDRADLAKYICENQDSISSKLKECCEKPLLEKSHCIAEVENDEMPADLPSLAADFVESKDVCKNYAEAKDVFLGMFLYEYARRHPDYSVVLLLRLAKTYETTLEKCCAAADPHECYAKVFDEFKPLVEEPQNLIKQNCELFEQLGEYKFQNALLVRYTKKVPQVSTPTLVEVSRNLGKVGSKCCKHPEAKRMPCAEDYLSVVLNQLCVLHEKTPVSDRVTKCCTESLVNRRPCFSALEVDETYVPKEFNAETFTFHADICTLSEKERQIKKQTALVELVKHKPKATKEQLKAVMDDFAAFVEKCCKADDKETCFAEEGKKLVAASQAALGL
rHSA (rice), sequence (P02768 25-609): as above
rF8 (HSA fragment F8), sequence (P02768 520-609): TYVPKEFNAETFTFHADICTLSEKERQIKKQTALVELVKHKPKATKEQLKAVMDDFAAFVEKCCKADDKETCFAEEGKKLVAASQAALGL

B1: H8 aptamer (ssDNA)
DNA: ATACCAGCTTATTCAATTCCCCCGGCTTTGGTTTAGAGGTAGTTGCTCATTACTTGTACGCTCCGGATGAGATAGTAAGTGCAATCT
binds: all assays above
